Data from article PMC10872586 (Cell reports, 2023).
Where a chain is given by its changes, count along the chain named.

B1: CR9114 Fab (positive control) (Fab, V domains shown)
VH: QVQLVQSGAEVKKPGSSVKVSCKSSGGTSNNYAISWVRQAPGQGLDWMGGISPIFGSTAYAQKFQGRVTISADIFSNTAYMELNSLTSEDTAVYFCARHGNYYYYSGMDVWGQGTTVTVSS
VL: QSALTQPPAVSGTPGQRVTISCSGSDSNIGRRSVNWYQQFPGTAPKLLIYSNDQRPSVVPDRFSGSKSGTSASLAISGLQSEDEAEYYCAAWDDSLKGAVFGGGTQLTVL
notes: source: Expi293F, co-transfected, purified (CaptureSelect CH1-XL)
B2: CR9114 gHC Fab VL W91R (Fab, V domains shown)
VH: QVQLVQSGAEVKKPGSSVKVSCKASGGTFSSYAISWVRQAPGQGLEWMGGIIPIFGTANYAQKFQGRVTITADKSTSTAYMELSSLRSEDTAVYYCARHGNYYYYYGMDVWGQGTTVTVSS
VL: B1 VL with Q1S, S2Y, A3V, W92R
notes: Kabat numbering; source: Expi293F, co-transfected, purified (CaptureSelect CH1-XL)
B3: CR9114 gHC Fab VL W91A (Fab, V domains shown)
VH: B2 VH
VL: B1 VL with Q1S, S2Y, A3V, W92A
notes: as for B2
B4: CR9114 gHC Fab VL A96F (Fab, V domains shown)
VH: B2 VH
VL: B1 VL with Q1S, S2Y, A3V, A99F
notes: as for B2
B5: CR9114 with germline heavy chain, Fab (Fab, V domains shown)
VH: B2 VH
VL: B1 VL with Q1S, S2Y, A3V
notes: also called CR9114 gHC; WT; source: Expi293F, co-transfected, purified (CaptureSelect CH1-XL)
B6: CR9114 gHC Fab VL A96W (Fab, V domains shown)
VH: B2 VH
VL: B1 VL with Q1S, S2Y, A3V, A99W
notes: as for B2
B7: CR9114 gHC Fab VL A96Y (Fab, V domains shown)
VH: B2 VH
VL: B1 VL with Q1S, S2Y, A3V, A99Y
notes: as for B2
B8: CR9114 gHC Fab VL W91T (Fab, V domains shown)
VH: B2 VH
VL: B1 VL with Q1S, S2Y, A3V, W92T
notes: as for B2

Legend:
mini-HA #4900 protein = mini-HA #4900 protein (Designed influenza A H1 HA stem #4900 …, stabilised, biotin at the BirA biotinylation site, conjugated to streptavidin-PE (for the yeast display assays only)); assay: BLI; settings: both partners purified
[1] = target: HA protein from H1N1 A/Solomon Islands/3/2006 (Influenza A virus (A/Solomon …, UniProt A7Y8I1, strain)); assay: BLI; settings: both partners purified

Binder	binding result [1]	further results
B1	–	Kd (mini-HA #4900 protein): 0.69 nM
B2	no binding (tested: 300 nM)	–
B3	no binding (tested: 300 nM)	–
B4	no binding (tested: 300 nM)	–
B5	–	Kd [1]: 2600 nM
B6	no binding (tested: 300 nM)	–
B7	no binding (tested: 300 nM)	–
B8	no binding (tested: 300 nM)	–
